According to article PMC11949838, “FUT10 and FUT11 are protein O-fucosyltransferases that modify protein EMI domains” (Nature Chemical Biology, 2025):

Assays:
[1] = biological target: human MMRN1 N-terminal EMI-Myc-His6 (first 290 amino acids of Multimerin-1, wild type) (human) (UniProt Q13201)
GFP–FUT10 (POFUT3) = biological target: T1, GFP–FUT10 (POFUT3) (Homo sapiens, UniProt Q6P4F1); assay: nano LC-MS/MS of O-fucosylated EMI peptides; type: biochemical; conditions: donor; 100 μM with 0.5 μM non-fucosylated MMRN1 N-terminal EMI, 50 mM HEPES pH 7, 37 °C
T1 sequence (Q6P4F1 34-479 limits assumed): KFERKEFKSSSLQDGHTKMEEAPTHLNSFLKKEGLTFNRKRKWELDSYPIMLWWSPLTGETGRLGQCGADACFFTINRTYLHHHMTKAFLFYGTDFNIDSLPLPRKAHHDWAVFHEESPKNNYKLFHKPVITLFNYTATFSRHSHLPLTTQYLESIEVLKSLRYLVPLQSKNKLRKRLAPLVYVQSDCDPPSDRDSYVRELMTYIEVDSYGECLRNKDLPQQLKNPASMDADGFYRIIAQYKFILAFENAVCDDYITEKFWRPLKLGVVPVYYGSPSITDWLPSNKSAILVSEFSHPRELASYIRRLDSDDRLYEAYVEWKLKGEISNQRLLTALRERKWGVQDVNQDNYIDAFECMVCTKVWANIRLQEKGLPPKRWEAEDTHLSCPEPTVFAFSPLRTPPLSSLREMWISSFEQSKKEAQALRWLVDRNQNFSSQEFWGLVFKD

GFP–FUT8 = biological target: T2, GFP–FUT8 (Homo sapiens, UniProt Q9BYC5); assay: nano LC-MS/MS of N-glycan fucosylation on EMI; type: biochemical; conditions: donor; 100 μM with 0.5 μM non-fucosylated MMRN1 N-terminal EMI, 50 mM HEPES pH 7, 37 °C, 30 min; positive control
T2 sequence (Q9BYC5 31-575 limits assumed): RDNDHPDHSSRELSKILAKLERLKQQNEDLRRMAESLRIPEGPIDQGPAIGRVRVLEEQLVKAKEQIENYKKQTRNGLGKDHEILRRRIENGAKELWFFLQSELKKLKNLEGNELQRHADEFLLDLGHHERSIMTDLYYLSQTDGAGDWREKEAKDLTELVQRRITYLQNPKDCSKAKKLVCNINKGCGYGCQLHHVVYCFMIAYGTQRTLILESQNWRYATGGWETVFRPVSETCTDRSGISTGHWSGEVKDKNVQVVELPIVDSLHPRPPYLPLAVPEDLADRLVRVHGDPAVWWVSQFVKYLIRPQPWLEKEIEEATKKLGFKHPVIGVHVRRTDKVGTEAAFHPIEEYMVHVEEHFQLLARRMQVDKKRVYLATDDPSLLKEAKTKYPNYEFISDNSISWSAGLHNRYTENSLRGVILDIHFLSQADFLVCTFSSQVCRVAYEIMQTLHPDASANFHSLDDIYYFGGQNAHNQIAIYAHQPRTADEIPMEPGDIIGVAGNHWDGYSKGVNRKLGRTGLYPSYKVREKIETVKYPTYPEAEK

[2] = western blot of cell lysates; conditions: glycan lost; control: wild type full-length MMRN1
[3] = anti-Myc western blot of medium, normalised to IgG; conditions: glycan lost; control: wild type full-length MMRN1
[4] = substrate: C[C@@H]1O[C@H](OP(=O)(O)OP(=O)(O)OC[C@H]2O[C@@H](n3cnc4c(=O)[nH]c(N)nc43)[C@H](O)[C@@H]2O)[C@@H](O)[C@H](O)[C@@H]1O; assay: nano LC-MS/MS glycopeptide quantification, Michaelis-Menten fit; type: biochemical, Homo sapiens; conditions: donor, 20 μM non-fucosylated MMRN1 N-terminal EMI, 0.3 mM MnCl2, 50 mM HEPES pH 7, 37 °C, 15 min, same value for T216 and T265 sites

For “GFP–FUT11 (human FUT11 lacking the transmembrane domain, from pGEn2-GFP-hFUT11) (from UniProt Q495W5 1-492) (enzyme)”, the Km for non-fucosylated N-terminal EMI at the T216 site; O-fucosylation kinetics by LC-MS/MS, Michaelis–Menten fit, 50 nM enzyme, 100 μM GDP-fucose, 0.3 mM MnCl2, 37 °C, 15 min [1] was 6.74 µM.

In the case of C[C@@H]1O[C@H](OP(=O)(O)OP(=O)(O)OC[C@H]2O[C@@H](n3cnc4c(=O)[nH]c(N)nc43)[C@H](O)[C@@H]2O)[C@@H](O)[C@H](O)[C@@H]1O [GDP-fucose], the “nano LC-MS/MS of O-fucosylated EMI peptides” value (GFP–FUT10 (POFUT3)) is reported as “Both GFP–FUT10 and GFP–FUT11 can independently add fucose to EMI substrates” and the “nano LC-MS/MS of N-glycan fucosylation on EMI” value (GFP–FUT8) is reported as “GFP–FUT8 was used as a positive control, and it robustly added fucose to N-glycans”.

B1: Multimerin-1 (MMRN1): T1055A (protein)
parent chain: MKGARLFVLLSSLWSGGIGLNNSKHSWTIPEDGNSQKTMPSASVPPNKIQSLQILPTTRVMSAEIATTPEARTSEDSLLKSTLPPSETSAPAEGVRNQTLTSTEKAEGVVKLQNLTLPTNASIKFNPGAESVVLSNSTLKFLQSFARKSNEQATSLNTVGGTGGIGGVGGTGGVGNRAPRETYLSRGDSSSSQRTDYQKSNFETTRGKNWCAYVHTRLSPTVILDNQVTYVPGGKGPCGWTGGSCPQRSQKISNPVYRMQHKIVTSLDWRCCPGYSGPKCQLRAQEQQSLIHTNQAESHTAVGRGVAEQQQQQGCGDPEVMQKMTDQVNYQAMKLTLLQKKIDNISLTVNDVRNTYSSLEGKVSEDKSREFQSLLKGLKSKSINVLIRDIVREQFKIFQNDMQETVAQLFKTVSSLSEDLESTRQIIQKVNESVVSIAAQQKFVLVQENRPTLTDIVELRNHIVNVRQEMTLTCEKPIKELEVKQTHLEGALEQEHSRSILYYESLNKTLSKLKEVHEQLLSTEQVSDQKNAPAAESVSNNVTEYMSTLHENIKKQSLMMLQMFEDLHIQESKINNLTVSLEMEKESLRGECEDMLSKCRNDFKFQLKDTEENLHVLNQTLAEVLFPMDNKMDKMSEQLNDLTYDMEILQPLLEQGASLRQTMTYEQPKEAIVIRKKIENLTSAVNSLNFIIKELTKRHNLLRNEVQGRDDALERRINEYALEMEDGLNKTMTIINNAIDFIQDNYALKETLSTIKDNSEIHHKCTSDMETILTFIPQFHRLNDSIQTLVNDNQRYNFVLQVAKTLAGIPRDEKLNQSNFQKMYQMFNETTSQVRKYQQNMSHLEEKLLLTTKISKNFETRLQDIESKVTQTLIPYYISVKKGSVVTNERDQALQLQVLNSRFKALEAKSIHLSINFFSLNKTLHEVLTMCHNASTSVSELNATIPKWIKHSLPDIQLLQKGLTEFVEPIIQIKTQAALSNLTCCIDRSLPGSLANVVKSQKQVKSLPKKINALKKPTVNLTTVLIGRTQRNTDNIIYPEEYSSCSRHPCQNGGTCINGRTSFTCACRHPFTGDNCTIKLVEENALAPDFSKGSYRYAPMVAFFASHTYGMTIPGPILFNNLDVNYGASYTPRTGKFRIPYLGVYVFKYTIESFSAHISGFLVVDGIDKLAFESENINSEIHCDRVLTGDALLELNYGQEVWLRLAKGTIPAKFPPVTTFSGYLLYRT
With B1 the expression_or_secretion [2] was “no change” and the “expression_or_secretion, other: % reduction vs WT” value [3] was “abolishes”.

B2: GFP–FUT11 (POFUT4) (Homo sapiens) (protein)
chain: AGGEAEWAEPWDGAVFRPPSALGAVGVTRSSGTPRPGREEAGDLPVLLWWSPGLFPHFPGDSERIECARGACVASRNRRALRDSRTRALLFYGTDFRASAAPLPRLAHQSWALLHEESPLNNFLLSHGPGIRLFNLTSTFSRHSDYPLSLQWLPGTAYLRRPVPPPMERAEWRRRGYAPLLYLQSHCDVPADRDRYVRELMRHIPVDSYGKCLQNRELPTARLQDTATATTEDPELLAFLSRYKFHLALENAICNDYMTEKLWRPMHLGAVPVYRGSPSVRDWMPNNHSVILIDDFESPQKLAEFIDFLDKNDEEYMKYLAYKQPGGITNQFLLDSLKHREWGVNDPLLPNYLNGFECFVCDYELARLDAEKAHAASPGDSPVFEPHIAQPSHMDCPVPTPGFGNVEEIPENDSWKEMWLQDYWQGLDQGEALTAMIHNNETEQTKFWDYLHEIFMKRQHL
B2 gave a Km [4] of 5 µM.
